Literature values in article PMC4184467.

Tested on: Lys64
Details: wild-type enzyme, zinc-bound

Carbonic anhydrase III (CA III) (Homo sapiens)
pKa: 9.0
